Test results published in US20250352662A1 (MERSANA THERAPEUTICS, published 2025).
Values joined by “and” are separate entries in the source; they are usually repeats but may differ in a detail not shown here. Identical values can stand only once.

T1: human NaPi2b on OVCAR3 human ovarian cancer cells (human, UniProt O95436 1-690)
T1 construct: also called SLC34A2; sodium-dependent phosphate transport protein 2B
T1 sequence: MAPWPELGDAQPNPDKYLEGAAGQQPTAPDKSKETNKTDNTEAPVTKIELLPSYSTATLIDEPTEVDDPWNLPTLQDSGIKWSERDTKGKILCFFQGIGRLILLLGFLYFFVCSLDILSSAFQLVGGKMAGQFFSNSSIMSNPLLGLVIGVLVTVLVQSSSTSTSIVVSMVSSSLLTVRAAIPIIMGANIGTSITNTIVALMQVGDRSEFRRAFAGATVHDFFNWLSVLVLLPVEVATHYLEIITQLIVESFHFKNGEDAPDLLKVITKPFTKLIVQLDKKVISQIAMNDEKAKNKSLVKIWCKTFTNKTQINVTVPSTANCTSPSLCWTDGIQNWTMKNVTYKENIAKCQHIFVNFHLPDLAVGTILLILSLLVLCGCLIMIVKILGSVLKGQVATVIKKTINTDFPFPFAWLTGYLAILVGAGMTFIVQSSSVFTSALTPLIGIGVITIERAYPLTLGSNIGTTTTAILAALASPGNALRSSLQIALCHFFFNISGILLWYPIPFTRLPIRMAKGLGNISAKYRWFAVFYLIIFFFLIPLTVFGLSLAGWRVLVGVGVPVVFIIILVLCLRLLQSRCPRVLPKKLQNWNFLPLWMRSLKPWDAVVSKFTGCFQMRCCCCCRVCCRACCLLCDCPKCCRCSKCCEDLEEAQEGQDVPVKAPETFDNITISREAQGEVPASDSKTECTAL

B1: XMT-1535 Conjugate 8b-3, DAR 6.4 (antibody, human IgG1, kappa)
heavy: not shown
light: DIQMTQSPSSLSASVGDRVTITCSASQDIGNFLNWYQQKPGKTVKVLIYYTSSLYSGVPSRFSGSGSGTDYTLTISSLQPEDFATYYCQQYSKLPLTFGQGTKLELKRRTVAAPSVFIFPPSDEQLKSGTASVVCLLNNFYPREAKVQWKVDNALQSGNSQESVTEQDSKDSTYSLSSTLTLSKADYEKHKVYACEVTHQGLSSPVTKSFNRGEC
modifications: STING agonist linker-drug on cysteine thiols of the reduced antibody, positions not given; STING agonist linker-drug (Compound 7) joined through maleimide to cysteine thiols of the TCEP-reduced antibody, positions not given; DAR 6.4 per antibody
B2: XMT-1535 (antibody, human IgG1, kappa)
heavy: not shown
light: B1 light
notes: Unconjugated antibody, IgG1; also called anti-NaPi2b antibody; NaPi2b mAb
B3: XMT-1535 mIgG2a (antibody, V domains shown)
VH: QVQLVQSGAEVVKPGASVKMSCKASGYTFTGYNIHWVKQAPGQGLEWIGAIYPGNGDTSYKQKFRGRATLTADTSTSTVYMELSSLRSEDSAVYYCARGETARATFAYWGQGTLVTVSSG
VL: DIQMTQSPSSLSASVGDRVTITCSASQDIGNFLNWYQQKPGKTVKVLIYYTSSLYSGVPSRFSGSGSGTDYTLTISSLQPEDFATYYCQQYSKLPLTFGQGTKLELKR
notes: Unconjugated; variable domains are those of XMT-1535 by name only; also called XMT-1535 hIgG1-mIgG2a
B4: XMT-1535 mIgG2a Conjugate 32d, DAR 8.8 (antibody, V domains shown)
VH: B3 VH
VL: B3 VL
notes: elsewhere called chimeric hIgG1-mIgG2a; the variable domains are those of XMT-1535 by name only

Target: T1, human NaPi2b on OVCAR3 human ovarian …
Experiment: flow cytometry on OVCAR3 cells, 1 h on ice, goat anti-human IgG-Alexa-647 detection, MFI; mean EC50
Procedure: OVCAR3 cells were grown to ˜80-95% confluency in RPMI 1640 medium supplemented with FBS (20%) and penicillin/streptomycin (1%). Cells were harvested and added to wells of a 96-well U bottom plate (50,000/well). The cells were pelleted (300×g, 5 minutes) and resuspended in solutions of test articles as indicated in Table 18 at concentrations ranging between 0.01 nM and 300 nM and incubated on ice for 1 hour.

Row | Binder | EC50
1 | B1 | 8.13 nM
2 | B2 | 4.29 nM and 3.74 nM
3 | B3 | 4.13 nM
4 | B4 | 2.99 nM
